The chains are these.
B1: Twister Ribozyme (parent)
chain: AACACUGCCAAUGCCGGUCCCAAGCCCGGAUAAAAGUGGAGGGGGCGG

Among the data in the RNAGym collection of RNA variant scans (doi:10.7554/elife.80360) are self-cleavage values, retold here.

In the series the parent is B1. Nature of the series: self-cleavage, relative activity (ratio to wild type); higher = more cleavage; co-transcriptional.
Take AACACUGCCAAUGCCGGUCCCAAGCCCGGAUAGUAGUGGAGGGGGCGG: the self-cleavage was determined as 0.461.

With AACACUGGCAAUGCCGGUCCCAAGCCCGGAUAAAAAUGGAGGGGGCGG, the self-cleavage turned out to be 0.129.

Regarding AACACUGCCAAUGCCGGUCCCAAGCCCGGAUAAAAGUGGACGGGACGG, the self-cleavage was 0.334.

Turning to AACCCUGCCAAUGCCGGUUCCAAGCCCGGAUAAAAGUGGAGGGGGCGG, the self-cleavage came to 0.0705.

For the variant AACACUGCCAAUGCCGGUCCCAAGCACGGAUAAAAGUGGAGGGGUCGG, the self-cleavage amounted to 0.136.

As for AACACUGCCAAUGCCGGUCCCAAGCCCGGAUAACAGUGGAGGGGGCCG, the self-cleavage is 0.177.

Turning to AACACUGCCAAUACCGGUCCCACGCCCGGAUAAAAGUGGAGGGGGCGG, the self-cleavage came out at 0.093.

Consider AACACUGCCAAUACCGGUCCCAAGCCCGCAUAAAAGUGGAGGGGGCGG, for which the self-cleavage came out at 0.692.

On to AACAUUGCCAAUGCCGGUCCCAAGCCCAGAUAAAAGUGGAGGGGGCGG, for which the self-cleavage came out at 0.572.

As to AACACUGCCAAUGCCGGUCCCCAGCCCGAAUAAAAGUGGAGGGGGCGG, the self-cleavage worked out at 1.01.

As to AACACUGCUAAUGCCGGUCCCAAGCCCGGAUAAAAGUGGAGGGGGCUG, the self-cleavage was 0.269.

As to AACGCUGCCAAUGCCAGUCCCAAGCCCGGAUAAAAGUGGAGGGGGCGG, the self-cleavage turned out to be 0.918.

Regarding AACACUGUCAAUGCCGGUUCCAAGCCCGGAUAAAAGUGGAGGGGGCGG, the self-cleavage came to 0.35.

On to AACACUGCCAAUGCCGGUCCCAAGCCCGGAUACAAGUGGAGGGGGCGG, for which the self-cleavage came out at 0.975.

Turning to AACACUUCCAAUGCCGGUCCCAAACCCGGAUAAAAGUGGAGGGGGCGG, the self-cleavage came to 0.0738.

In the case of AAUACUGCCAAUGCCGGUCCCAAGCUCGGAUAAAAGUGGAGGGGGCGG, the self-cleavage amounted to 0.138.

Consider AACACUGCCACUGCCGGUCCCAAGCCCGGAUAACAGUGGAGGGGGCGG, for which the self-cleavage was 0.049.

On to AACACUGCCAAUGCCGGUCCCAAGCCCUGAUAAAAGUGGAGGGCGCGG, for which the self-cleavage stood at 0.782.

As to AACACUGCCAAUGCCGGUCCCAAGGCCGGAUAAAAGUGGAGGGGUCGG, the self-cleavage worked out at 0.145.

In the case of AACACUGCCAAUGCCGGUCCGAAGCCCGGAUAAAAGUGGAGGGUGCGG, the self-cleavage worked out at 0.102.

AAGACUGCCAAUGCCGGGCCCAAGCCCGGAUAAAAGUGGAGGGGGCGG: the self-cleavage stood at 0.0365.

As for AACACUGCCAAUGCCGGUCCCCAGCCCGGAUAAAAGUGGAGGGGGCGU, the self-cleavage stood at 1.03.

For AACACGGCCAAUGCCGGUCCCGAGCCCGGAUAAAAGUGGAGGGGGCGG, the self-cleavage worked out at 0.106.

On to AACACUGCCAAUGCCGGUCGCAAGCCCGGAUAAAAGUGGGGGGGGCGG, for which the self-cleavage is 0.104.

As to AACACUGCAAAUGCCGGUCUCAAGCCCGGAUAAAAGUGGAGGGGGCGG, the self-cleavage came out at 0.15.

As to AACACUGCAAAUGCCGGUCCCAAGCCCGGAUAAAAGGGGAGGGGGCGG, the self-cleavage is 0.33.

With AACCCUGCCAAUGCCGGUCCCAAUCCCGGAUAAAAGUGGAGGGGGCGG, the self-cleavage came to 0.0584.

Turning to AACACUGCUAAUGCCGGUCCCAAGCCCGGAUAAAAGUGGGGGGGGCGG, the self-cleavage stood at 0.14.

Turning to AACACUGCCAAUGCCGGUCCCAAGCCCGGAUGAAAGUGGAAGGGGCGG, the self-cleavage came to 0.518.

With AACACUGCCAAUGCCGGUCCCAAACCCGUAUAAAAGUGGAGGGGGCGG, the self-cleavage was 0.1.

With AACACUGGCAAGGCCGGUCCCAAGCCCGGAUAAAAGUGGAGGGGGCGG, the self-cleavage was 0.676.

For AACACUGCCAAUGCCGGUCCCAAGCCCGGAUAAAAGUGAAGGAGGCGG, the self-cleavage amounted to 0.152.

As to AACACUGCCAUUGCCGGUCCCGAGCCCGGAUAAAAGUGGAGGGGGCGG, the self-cleavage turned out to be 0.399.

For AACACUCCCAAUGCCGGUCCCAAGCCCGGAUAGAAGUGGAGGGGGCGG, the self-cleavage stood at 0.064.

Regarding AACACUGCCAAUGCCGGUCCUAAGCCCGGAUAAAAGUGGAGGGAGCGG, the self-cleavage came to 0.126.

As to AACACUGCCAAUGCCGGUCCCAAGCCCGGAUAAACGUGGAUGGGGCGG, the self-cleavage turned out to be 0.709.

Take AACAGUACCAAUGCCGGUCCCAAGCCCGGAUAAAAGUGGAGGGGGCGG: the self-cleavage was 0.111.

AACACUGCCAAUGCCGGUCCCAAGCCCGGGUAAAAGUGGAGGGGGCUG: the self-cleavage was 0.877.

Regarding AACACUGCCAAUGCCGCUCCCAAGCCCGGAUAAAAGGGGAGGGGGCGG, the self-cleavage was 0.0835.

Take AACACUGCCAAUGCCGGUCCCAAGCCCGUAUAAAAGCGGAGGGGGCGG: the self-cleavage came to 0.444.

In the case of AACACUGCCAAUGCCGGUCCCAAGCCCGGAUAAUAGCGGAGGGGGCGG, the self-cleavage came to 0.155.

AACACUGCCAAUGCCGGUUCCAAGCCCGGAUAAAAGUGGAGGGCGCGG: the self-cleavage came out at 0.608.

Take AACACUGCCAAUGCCGGUCCCAAGCCCGGAUAAUAGUGGAGGGUGCGG: the self-cleavage was determined as 0.771.

In the case of AACACUUCCAAUGCCGGUCCCAAGCCAGGAUAAAAGUGGAGGGGGCGG, the self-cleavage was determined as 0.0728.

Take AACACUGCCAUUGCCGGUCCCAAGUCCGGAUAAAAGUGGAGGGGGCGG: the self-cleavage came out at 1.03.

AACACUGCCAAUCCCGGUCCCAAGCCCGGAUAAAAGUCGAGGGGGCGG: the self-cleavage came to 0.32.

For AACUCUGCCAAUGCCUGUCCCAAGCCCGGAUAAAAGUGGAGGGGGCGG, the self-cleavage came to 0.0436.

For the variant UACACUGCCAAUGCCGGUCCCAAGCCCGGAUAAAAGUGGAGAGGGCGG, the self-cleavage was found to be 0.0707.

Consider AACACUGCCAAUGCCGGUCCCACGCCCGGAUAAAAGUUGAGGGGGCGG, for which the self-cleavage was determined as 0.107.

For the variant AACACUGCCAAUGCCGGUCCAAAGCCCGGAUAAAAGUGUAGGGGGCGG, the self-cleavage was 0.0973.

On to AACACUGCCAAUGCCGGUCGCAAGACCGGAUAAAAGUGGAGGGGGCGG, for which the self-cleavage stood at 0.0525.

On to AACACUGCCAAUGCCGCUCCCAAGGCCGGAUAAAAGUGGAGGGGGCGG, for which the self-cleavage worked out at 0.0833.

For AGCACUGCCAAUGCCGGUCCCAAGCCCGGAAAAAAGUGGAGGGGGCGG, the self-cleavage was determined as 0.328.

AACACUGCCAAUGCCGAUCCCAAGCCCGGCUAAAAGUGGAGGGGGCGG: the self-cleavage worked out at 0.275.
